Drawing on US20260216242A1, “ALPP-SPECIFIC VARIANT ANTIGEN BINDING MOLECULES” (ALMAC DISCOVERY LIMITED, priority 2022, published 2026), this text covers % viability remaining and IC50 for 4 molecules.

Sequences and labels used below:
B1: D10 E06-hFc (S239/442C T366Y/Y407T), [G4S]1 linker, MC-vc-PAB-MMAE conjugate, #677 (Fc fusion, DAR 4)
chain 1: QVQLVESGGGLVQPGGSLRLSCAASGSIFSVNTMGWYRQAPGKQRDLVAVATSGGTIHYADSVKGRFTISRDNAKNTVYLQMNSLKPEDTAVYYCNLVVPYGMIAGDHDYWGQGTKVTVSSGGGGSEPKSSDKTHTCPPCPAPELLGGPCVFLFPPKPKDTLMISRTPEVTCVVVDVSHEDPEVKFNWYVDGVEVHNAKTKPREEQYNSTYRVVSVLTVLHQDWLNGKEYKCKVSNKALPAPIEKTISKAKGQPREPQVYTLPPSRDELTKNQVSLYCLVKGFYPSDIAVEWESNGQPENNYKTTPPVLDSDGSFFLYSKLTVDKSRWQQGNVFSCSVMHEALHNHYTQKSLCLSPGK
chain 2: QVHLVESGGGLVQAGGSLRLSCAASRRSFSEYAMGWFRQAPGKEREFVAAIGWSGVIEYADSVKGRFTISRDNAKDTVYLQMNSLKPEDTAVYYCAAGLGIRVVSQTPAYWGQGTQVTVSSGGGGSEPKSSDKTHTCPPCPAPELLGGPCVFLFPPKPKDTLMISRTPEVTCVVVDVSHEDPEVKFNWYVDGVEVHNAKTKPREEQYNSTYRVVSVLTVLHQDWLNGKEYKCKVSNKALPAPIEKTISKAKGQPREPQVYTLPPSRDELTKNQVSLTCLVKGFYPSDIAVEWESNGQPENNYKTTPPVLDSDGSFFLTSKLTVDKSRWQQGNVFSCSVMHEALHNHYTQKSLCLSPGK
modifications: here or on the partner: MC-vc-PAB-MMAE on Cys of S239C and S442C (EU numbering)
B2: D10 E10-hFc (S239/442C T366Y/Y407T), [G4S]1 linker, MC-vc-PAB-MMAE conjugate, #678 (Fc fusion, DAR 4)
chain 1: QVQLVESGGGLVQPGGSLRLSCAASGSIFSVNTMGWYRQAPGKQRDLVAVATSGGTIHYADSVKGRFTISRDNAKNTVYLQMNSLKPEDTAVYYCNLVVPYGMIAGDHDYWGQGTKVTVSSGGGGSEPKSSDKTHTCPPCPAPELLGGPCVFLFPPKPKDTLMISRTPEVTCVVVDVSHEDPEVKFNWYVDGVEVHNAKTKPREEQYNSTYRVVSVLTVLHQDWLNGKEYKCKVSNKALPAPIEKTISKAKGQPREPQVYTLPPSRDELTKNQVSLYCLVKGFYPSDIAVEWESNGQPENNYKTTPPVLDSDGSFFLYSKLTVDKSRWQQGNVFSCSVMHEALHNHYTQKSLCLSPGK
chain 2: QVQLVESGGGLVQAGGSLRLSCAVSGRALSDYNIGWFRQAPGKEREFVARKTWDGSSTRYDDSVKGRFTVSIEDAKNTAYLQMSSLKTEDTAVYYCAAGRYSRARGWEYDYWGQGTQVTVSSGGGGSEPKSSDKTHTCPPCPAPELLGGPCVFLFPPKPKDTLMISRTPEVTCVVVDVSHEDPEVKFNWYVDGVEVHNAKTKPREEQYNSTYRVVSVLTVLHQDWLNGKEYKCKVSNKALPAPIEKTISKAKGQPREPQVYTLPPSRDELTKNQVSLTCLVKGFYPSDIAVEWESNGQPENNYKTTPPVLDSDGSFFLTSKLTVDKSRWQQGNVFSCSVMHEALHNHYTQKSLCLSPGK
modifications: here or on the partner: MC-vc-PAB-MMAE on Cys of S239C and S442C (EU numbering)
B3: D10 F05-hFc (S239/442C T366Y/Y407T), [G4S]1 linker, MC-vc-PAB-MMAE conjugate, #679 (Fc fusion, DAR 4)
chain 1: QVQLVESGGGLVQPGGSLRLSCAASGSIFSVNTMGWYRQAPGKQRDLVAVATSGGTIHYADSVKGRFTISRDNAKNTVYLQMNSLKPEDTAVYYCNLVVPYGMIAGDHDYWGQGTKVTVSSGGGGSEPKSSDKTHTCPPCPAPELLGGPCVFLFPPKPKDTLMISRTPEVTCVVVDVSHEDPEVKFNWYVDGVEVHNAKTKPREEQYNSTYRVVSVLTVLHQDWLNGKEYKCKVSNKALPAPIEKTISKAKGQPREPQVYTLPPSRDELTKNQVSLYCLVKGFYPSDIAVEWESNGQPENNYKTTPPVLDSDGSFFLYSKLTVDKSRWQQGNVFSCSVMHEALHNHYTQKSLCLSPGK
chain 2: QVQLVESGGGLVQAGGSLRLSCAASGRAFGDYNIGWFRQAPGKEREFVARRTWDGSSTRYDDSVKGRFTVSIDNAKNTAYLQMNSLKTEDTAVYYCAAGRYSRVRGWEYDYWGQGTQVTVSSGGGGSEPKSSDKTHTCPPCPAPELLGGPCVFLFPPKPKDTLMISRTPEVTCVVVDVSHEDPEVKFNWYVDGVEVHNAKTKPREEQYNSTYRVVSVLTVLHQDWLNGKEYKCKVSNKALPAPIEKTISKAKGQPREPQVYTLPPSRDELTKNQVSLTCLVKGFYPSDIAVEWESNGQPENNYKTTPPVLDSDGSFFLTSKLTVDKSRWQQGNVFSCSVMHEALHNHYTQKSLCLSPGK
modifications: here or on the partner: MC-vc-PAB-MMAE on Cys of S239C and S442C (EU numbering)
B4: A06 F05-hFc (S239/442C T366Y/Y407T), [G4S]3 linker, MC-vc-PAB-MMAE conjugate, #665 (Fc fusion, DAR 4)
chain 1: QVHLVESGGGLVQAGGSLRLSCAASGRTFLSMGWFRQAPGKEREFVAAISWTGGSTGYADSVKGRFTISRESDKETMYLQMNSLKPEDTAVYYCAARGDVYYGGDDATRYKYWGQGTQVTVSSGGGGSGGGGSGGGGSEPKSSDKTHTCPPCPAPELLGGPCVFLFPPKPKDTLMISRTPEVTCVVVDVSHEDPEVKFNWYVDGVEVHNAKTKPREEQYNSTYRVVSVLTVLHQDWLNGKEYKCKVSNKALPAPIEKTISKAKGQPREPQVYTLPPSRDELTKNQVSLYCLVKGFYPSDIAVEWESNGQPENNYKTTPPVLDSDGSFFLYSKLTVDKSRWQQGNVFSCSVMHEALHNHYTQKSLCLSPGK
chain 2: QVQLVESGGGLVQAGGSLRLSCAASGRAFGDYNIGWFRQAPGKEREFVARRTWDGSSTRYDDSVKGRFTVSIDNAKNTAYLQMNSLKTEDTAVYYCAAGRYSRVRGWEYDYWGQGTQVTVSSGGGGSGGGGSGGGGSEPKSSDKTHTCPPCPAPELLGGPCVFLFPPKPKDTLMISRTPEVTCVVVDVSHEDPEVKFNWYVDGVEVHNAKTKPREEQYNSTYRVVSVLTVLHQDWLNGKEYKCKVSNKALPAPIEKTISKAKGQPREPQVYTLPPSRDELTKNQVSLTCLVKGFYPSDIAVEWESNGQPENNYKTTPPVLDSDGSFFLTSKLTVDKSRWQQGNVFSCSVMHEALHNHYTQKSLCLSPGK
modifications: here or on the partner: MC-vc-PAB-MMAE on Cys of S239C and S442C (EU numbering)

This experiment deals with ALPP/ALPPL2 on ALPP/ALPPL2 positive cancer cells (MKN1, NCI-H1651, NCI-N87, Caov-3, HPAC). Kind of experiment: cell-based or functional assay.
The IC50 is the concentration at which inhibition is half-maximal. A low value points to inhibition by little substance. In turn, B1 gave a % viability remaining at 96 h, MKN1 cells of 5.3%; a % viability remaining at 96 h, NCI-H1651 cells of 28.9%; a % viability remaining at 96 h, NCI-N87 cells of 25.5%; an IC50 at 96 h, cell-killing of MKN1 cells of 31.8 nM. This molecule also gave an IC50 at 96 h, cell-killing of NCI-H1651 cells of 1.3 nM and an IC50 at 96 h, cell-killing of NCI-N87 cells of 0.6 nM.

In turn, B2 came in with a % viability remaining at 96 h, MKN1 cells of 24.5%; a % viability remaining at 96 h, NCI-H1651 cells of 31%; a % viability remaining at 96 h, NCI-N87 cells of 23.6%; an IC50 at 96 h, cell-killing of MKN1 cells of 8.1 nM. For the same molecule, the IC50 at 96 h, cell-killing of NCI-H1651 cells turned out to be 0.6 nM and the IC50 at 96 h, cell-killing of NCI-N87 cells stood at 0.5 nM.

With B3, the % viability remaining at 96 h, MKN1 cells was 25.2%; the % viability remaining at 96 h, NCI-H1651 cells worked out at 31.2%; the % viability remaining at 96 h, NCI-N87 cells was 21.8%; the IC50 at 96 h, cell-killing of MKN1 cells was determined as 9.7 nM. The molecule also returned an IC50 at 96 h, cell-killing of NCI-H1651 cells of 0.8 nM and an IC50 at 96 h, cell-killing of NCI-N87 cells of 0.6 nM.

In turn, B4 had a % viability remaining at 96 h, MKN1 cells of 31.6%; a % viability remaining at 96 h, NCI-H1651 cells of 25%; a % viability remaining at 96 h, NCI-N87 cells of 27%; a half-inhibitory concentration (IC50) at 96 h, cell-killing of MKN1 cells of 0.7 nM. Moreover, the IC50 at 96 h, cell-killing of NCI-H1651 cells came to 0.4 nM and the 50% inhibitory concentration (IC50) at 96 h, cell-killing of NCI-N87 cells is 5.8 nM.
